The test deals with mIgM proximal domain peptide conjugated to keyhole limpet hemocyanin (human). In words: ELISA direct binding, mIgM-PD-KLH. (In general: An ELISA detects its analyte on a solid surface through an enzyme-linked reagent.)

Control mAb (antibody) yielded an ELISA reading of 0.1.

The values above are taken from patent US20160304625A1.
